# Measured values from PMC8441146, “DNA-guided photoactivatable probe-based chemical proteomics reveals the reader protein of mRNA methylation”.
# T1: DDX1 (UniProt Q92499 1-728)
# T1 sequence: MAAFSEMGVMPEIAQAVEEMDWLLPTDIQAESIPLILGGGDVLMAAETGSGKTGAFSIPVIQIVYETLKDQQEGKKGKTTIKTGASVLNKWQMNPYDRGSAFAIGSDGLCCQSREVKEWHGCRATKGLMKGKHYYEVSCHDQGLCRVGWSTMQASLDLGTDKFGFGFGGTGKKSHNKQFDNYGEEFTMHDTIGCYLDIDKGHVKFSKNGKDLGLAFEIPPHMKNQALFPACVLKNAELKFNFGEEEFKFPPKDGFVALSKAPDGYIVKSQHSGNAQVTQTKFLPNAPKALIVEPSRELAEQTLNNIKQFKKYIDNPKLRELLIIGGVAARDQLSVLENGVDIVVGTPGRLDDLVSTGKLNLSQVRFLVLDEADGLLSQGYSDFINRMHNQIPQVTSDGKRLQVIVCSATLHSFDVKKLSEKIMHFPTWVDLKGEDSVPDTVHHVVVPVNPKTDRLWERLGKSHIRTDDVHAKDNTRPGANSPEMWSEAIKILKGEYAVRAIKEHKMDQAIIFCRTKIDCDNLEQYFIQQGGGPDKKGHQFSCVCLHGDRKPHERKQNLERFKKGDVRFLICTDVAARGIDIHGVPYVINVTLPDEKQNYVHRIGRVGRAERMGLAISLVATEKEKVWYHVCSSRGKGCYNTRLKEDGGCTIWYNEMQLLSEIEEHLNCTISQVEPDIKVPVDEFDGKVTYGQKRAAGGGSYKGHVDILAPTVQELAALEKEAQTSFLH
# T2: DDX1 lacking D2 domain (UniProt Q92499 1-450)
# T2 sequence: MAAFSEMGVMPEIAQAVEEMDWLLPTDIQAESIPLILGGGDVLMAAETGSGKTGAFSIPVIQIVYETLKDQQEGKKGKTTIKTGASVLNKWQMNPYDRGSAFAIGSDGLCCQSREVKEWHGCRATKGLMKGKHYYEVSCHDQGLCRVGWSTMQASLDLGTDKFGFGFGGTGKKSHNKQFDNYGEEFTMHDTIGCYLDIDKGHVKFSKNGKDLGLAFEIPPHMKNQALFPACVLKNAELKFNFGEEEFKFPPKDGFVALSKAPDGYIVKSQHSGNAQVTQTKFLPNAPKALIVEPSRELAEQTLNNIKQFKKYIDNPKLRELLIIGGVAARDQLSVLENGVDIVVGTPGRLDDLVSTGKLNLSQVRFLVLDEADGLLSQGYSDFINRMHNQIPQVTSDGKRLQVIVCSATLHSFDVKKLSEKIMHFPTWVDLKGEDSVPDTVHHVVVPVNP
# B1: Am-modified ssRNA (ITC) (ssRNA)
# RNA: AAGAUC
# modifications: 2'-O-methyl A
# Assays:
# [1] = target: T1, DDX1; experiment: ITC; ITC: 20 mM Tris pH 7.5, 150 mM NaCl, 25 C; YTH labelling: 3 uM YTH, 12 uM BP/CP (200 mM NaCl chosen after optimization); pull-down: HeLa RIPA lysate, 4 C, UV 6; conditions: protein: recombinant; tags: pET28a, Ni-NTA purified (His)
# [2] = target: T2, DDX1 lacking D2 domain; experiment: as above; conditions: protein: recombinant; tags: pET28a, Ni-NTA purified (His)
binder,measurement,setting,value
B1,binding result,[1],binds
same,binding result,[2],no binding
